In the test the target is Lectin-like protein 1 (Llp1), residues 23-241, without the signal peptide (Ustilago maydis). Description: SEC-MALS; Superdex 200 Increase 10/300, HEPES buffer, pH 7.5.

On to “Lectin-like protein 1 (Llp1), residues 23-241, without the signal peptide (from UniProt A0A0D1E6R1 23-241) (domain or fragment)”, for which the stoichiometry N (commonly the number of molecules, sites or subunits per partner or assembly) turned out to be 4.

The record behind these values is publication PMC11857070.
